Data as given in patent US12492373B2, “Production method for nerve tissue” (Racthera Co., Ltd., priority 2014, dated 2025).

Columns and labels:
[1] = tested on: human iPS cells (Ff-I01 strain); assay: Immunostaining of aggregate sections for retinal tissue marker Chx10; assay type: cell-based
Description: (§1) Cell aggregates on day 16 after the start of suspension culturing were fixed with 4% para-formaldehyde to prepare frozen sections. These frozen sections were immunostained for Chx10 (anti-Chx10 antibody, Exalpha, sheep), which is one of the retinal tissue markers. These immunostained sections were observed under a fluorescence microscope.
Cell aggregates on day 16 after the start of suspension culturing were fixed with 4% para-formaldehyde to prepare frozen sections. These frozen sections were immunostained for Chx10 (anti-Chx10 antibody, Exalpha, sheep), which is one of the retinal tissue markers, and observed under a fluorescence microscope. […] In addition, the proportion of Chx10-positive cells in the total cells is about 80% under conditions with the addition of BMP4 twice to maintain the final concentration of 5 nM (FIG. 23, D)
The cell aggregates on day 19 after the start of suspension culturing were fixed with 4% para-formaldehyde to prepare frozen sections. These frozen sections were immunostained for Chx10 (anti-Chx10 antibody, Exalpha, sheep), which is one of the retinal tissue markers. These immunostained sections were observed under an inverted fluorescence microscope. As a result, the proportion of Chx10-positive cells in the total cells is about 70% under conditions with the addition of BMP4 twice to maintain the final concentration of 1.5 nM ([…]). In addition, the proportion of Chx10-positive cells in the total cells is about 90% under conditions with the addition of BMP4 twice to maintain the final concentration of 5 nM (FIG. 34, D).
as §1, with “The thus-prepared cell” for “Cell”, “19” for “16”, “markers, and” for “markers. These immunostained sections were”

[2] = tested on: human iPS cells (Ff-I01 strain); assay: Neural tissue / neuroepithelium formation in cell aggregates, bright field observation; assay type: cell-based
Protocol: At the time of the start of suspension culturing (day 0 after the start of suspension culturing, […]), Y27632 ([…]) were added to the above serum-free medium (FIG. 22). By day 2 after the start of suspension culturing, a cell aggregate was formed (step 2 completed, step 3 start) under any conditions. On day 3 or later from the start of suspension culturing, BMP4 was added under 3 conditions including the following conditions 1-3. • Condition 1: (+BMP4 addition once) On day 3 of suspension culturing, a medium (50 μl) free of Y27632 and SAG, and containing human recombinant BMP4 (manufactured by R&D) was added such that the final concentration of exogenous human recombinant BMP4 was 1.5 nM (55 ng/ml). On day 6 or later from the start of suspension culturing, a half amount of the medium was changed to a serum-free medium free of Y27632, SAG and human recombinant BMP4. • Condition 2: (+BMP4 addition twice) On day 3 of suspension culturing, a medium (50 μl) free of Y27632, SAG and containing human recombinant BMP4 (manufactured by R&D) was added such that the final concentration of exogenous human recombinant BMP4 was 1.5 nM (55 ng/ml). On day 6 from the start of suspension culturing, 50 μl of the medium was discarded, and 50 μl of a medium free of Y27632 and SAG and containing human recombinant BMP4 (manufactured by R&D) was added to maintain the final concentration of exogenous human recombinant BMP4 at 1.5 nM (55 ng/ml). On day 9 or later from the start of suspension culturing, a half amount of the medium was changed with a serum-free medium free of Y27632, SAG, and human recombinant BMP4. • Condition 3: (+BMP4 addition three times) On day 3 of suspension culturing, a medium (50 μl) free of Y27632, SAG and containing human recombinant BMP4 (manufactured by R&D) was added such that the final concentration of exogenous human recombinant BMP4 was 1.5 nM (55 ng/ml). On days 6 and 9 from the start of suspension culturing, 50 μl of the medium was discarded, and 50 μl of a medium free of Y27632 and SAG and containing human recombinant BMP4 (manufactured by R&D) was added to maintain the final concentration of exogenous human recombinant BMP4 at 1.5 nM (55 ng/ml). On day 12 or later from the start of suspension culturing, a half amount of the medium was changed with a serum-free medium free of Y27632, SAG and human recombinant BMP4. […]
On day 3 after the start of suspension culturing, a medium (50 μl) free of Y27632 and SAG, and containing human recombinant BMP4 (manufactured by R&D) was added such that the final concentration of exogenous human recombinant BMP4 was 1.5 nM (55 ng/ml) or 5 nM (183 ng/ml). […]

B1: BMP4: human recombinant BMP4 (manufactured by R&D), BMP signal transduction pathway activating substance (protein, UniProt P12644 293-408, looked up)
Bone morphogenetic protein 4: SPKHHSQRARKKNKNCRRHSLYVDFSDVGWNDWIVAPPGYQAFYCHGDCPFPLADHLNSTNHAIVQTLVNSVNSSIPKACCVPTELSAISMLYLDEYDKVVLKNYQEMVVEGCGCR
proportion of Chx10-positive cells in the total cells ([1]; SAG 300 nM 2 days in step 1, SAG 300 nM in step 2, BMP4 1.5 nM added 2 or 3 times, day 16): about 80%
proportion of Chx10-positive cells in the total cells ([1]; SAG 300 nM 2 days in step 1, SAG 300 nM in step 2, BMP4 1.5 nM added once (day 3), day 16): about 60%
proportion of Chx10-positive cells in the total cells ([1]; StemFit AK03, SAG 300 nM 2 days in step 1, SAG 1000 nM in step 2, BMP4 added twice to maintain 1.5 nM, day 16): about 70%
proportion of Chx10-positive cells in the total cells ([1]; StemFit AK03, SAG 300 nM 2 days in step 1, SAG 1000 nM in step 2, BMP4 added twice to maintain 5 nM, day 16): about 80%
proportion of Chx10-positive cells in the total cells ([1]; StemFit AK03N, SAG 300 nM 2 days in step 1, SAG 500 nM in step 2, BMP4 added twice to maintain 1.5 nM, day 19): about 70%
proportion of Chx10-positive cells in the total cells ([1]; StemFit AK03N, SAG 300 nM 2 days in step 1, SAG 500 nM in step 2, BMP4 added twice to maintain 5 nM, day 19): about 90%
cell aggregate and neural tissue formation ([2]; SAG 300 nM 2 days in step 1, SAG 300 nM in step 2, BMP4 1.5 nM added 1, 2 or 3 times in step 3, day 16): a neural tissue could be formed efficiently
cell aggregate and neural tissue formation ([2]; SAG 300 nM 2 days in step 1, SAG 1000 nM in step 2, BMP4 at 1.5 nM and 5 nM in step 3, day 16): a neural tissue could be formed efficiently
cell aggregate and neural tissue formation ([2]; StemFit AK03N, SAG 300 nM 2 days in step 1, SAG 500 nM in step 2, BMP4 at 1.5 nM or 5 nM, day 19): a neural tissue can be formed efficiently
